Experimental data from the DeepSol protein solubility set.

Test: soluble on expression in E. coli; label from the status in PepcDB or PDB records

Sequence	soluble on expression in E. coli
MAHHHHHHMSGITVQLVFAFVGTRVPYFMPESATAASSPARSPFGNASSVSFNAAAQPTLRADSARTSPRLTPCIPTNLFTAHGLLSHLAKALEPSLHAAANPEAATAESASLSPTAPLPFHKPPVFELFDYASLDPLEGSAALRDEQVLLVLCDIATTAQLVEALQLEWLEVYSGVHHPHHRSCSASTPEPAHTTDMAVCTTEEKLRNVAHAQQALCKPVGLHLSLLRKELLSREATLAAQKEQLAQMRSCTTEGTAPAAPATASGSDGLSTPMLSGRAASFPLLVELEPSLSSEPAPSATDATHLQKLEAPLALCEARVRAVESLMQRAAKHHTKLLGLAASERATEEAFQRGNVSRACAEYLEHTEQDRSAAEAIIADYQVEMTRQVKVVRQLIAYITQVRKLASKAKYEMGVVELILSRLSLTSLRPRLMKEAEALLRRRVILRRAARRQMLLLQETEFVKLQQDLESFSQRMEVQKVLPEKVRWYLRAPLPSLMPEEDPVATLLDHALIDREEDEAQELVEKTRVYTADSSDPEKNALQITEALLPVERLARRLEEARASAAQYKSRVEELEERLKLYETAEALSPPPLQDSAVKSPSTERPAEGGGSFEEG	soluble
MGSDKIHHHHHHMYHEFTPCAALVPFIDKFWVFKGFTDIGTRFKILADGCTDFIFSIGNMTVPTDEHSMIMQPYRSFFVGPMRSYSNLTATTDSLHMLGVRFQPCGLAAFTNEPLGQFADLRIQSSDINLLFDNSFAEMLCEQPDDSVRIRIIEGYLIRLLTQSIQVDRQIIYATSFIKQSYGQLPVQNLIDKICICQRHFQRKFKDATGYTPKEFSRIIKFQYAIEVLRNAPHTDLSSIALDCGYYDHSHFIKEFKRLAGDVPSYFLTLPNPADEPLTYI	not soluble
MKRIDLLLNVLDSTFDKESWYAPFKYAIEGLTAEQAMWKPAGETTNTIWENVNHLTYYKERLAANLEGREWTHNLDGNDTFYLTKQSNNDTEWKEVVERSENAQRNLRQVLSAISERELEQNSLEGKLLDIMLHDAYHTGQIIQLRKMQGAWPSKR	not soluble
MSSTSRIMRPDDANIVGNVHGGTILKMIEEAGCIIGTRHCNTQSGDRCLAALARVERTDFLHPMFIGEVAHVSAEITYTSKHSVEVQVNVLAENIVTGAKKVTNKATLWYVPLSLQNVDKIIEVPPIEYSSPEREEAGKKRYEAQKLERLEDKVRNGEIIMSVSLPEPYTVVCSQSSLIHLVGPSDCTLHGFVHGGVTMKLMDEVAGIVAARHCKTNIVTASVDAINFHRKIKKGCVITVSGRMTFTSNKSMEI	soluble
MGSDKIHHHHHHMDFVDVPAVTRDATILSLRDVSRKLVRELGFMRSTLANSDLAPSAVHAVLEIGMKPGITAKDLATILRLDKSNTSRQIARLEAAGFVERRVSSDDARSSELYLSAEGKSLRARIDRFATSQVSNALRHMAPADQQALLRSLALYANALAQDNAGNAPPATPEAVQIIEGYQPGCIGDIASLHGRFYAAHWGFGAFFEKRVATELAAFAGSLPVDGKALWLYVENGRSLASLAIDGDKTTGIAHLRWFIVDESLHGSGIGRELMARAMRFVETQGFRETHLWTFKGLEAARHLYESHGFRLSEEFEGSQWGTTVTEQRFNRV	not soluble
MGSDKIHHHHHHMYVTSQIHAKGSDLAKLMQIAALKGNEEVLDVATGGGHVANAFAPFVKKVVAFDLTEDILKVARAFIEGNGHQQVEYVQGDAEQMPFTDERFHIVTCRIAAHHFPNPASFVSEAYRVLKKGGQLLLVDNSAPENDAFDVFYNYVEKERDYSHHRAWKKSDWLKMLEEAGFELEELHCFHKTFIFEDWCDRMNVTTEKKQELSDFIKSKPTEYYQKFKIVVEDGRVYSFRGESILMKARKPTVKNKGSS	soluble
MGSDKIHHHHHHMDIRVLRYFVVIAQEQNISRAATLLNVSQPALSRQIADLEDELGTKLFTRAHRHIQLTQEGHYLLERALQIIGLVDKTTYNLQKQDVVSGTLDIGAGESVGIMPVMEAAQQIMRQYPDVRVNLRSADAEPILADLDAGILEFGIIMGNRPLNNYNTLVLPAKNHWCAIMRADEPLAQQKEIRPIDLVGRPLITSRQAYKHGLFQKWSNTLYDQLNFVGTFNLAFNGSLLVKTGAAIALLYDQLVDVSPTSGLVARPLNPDMSEANTLIWSKNRNLPNLNRLFLDTLQKNLAQQGGSDA	not soluble
MGGMTGMNNNAIKVVSVLAIGARERIALVEVGQQQILLGITPSTIRTLHVFDEPVVDAGNAGSSDFARKLQSMIGKSWSAPERKDLEHHHHHH	not soluble
MGDSAPARIDTLEIKLLFAGDIMTHGPQIESAKCEGGRVYDFSSSFDTLASRIGAADLAIGNLETTFAGAPYSGYPTFSSPDAMGEALKNAGFDVLTTANNHTADKGKKGIIRTLDMLDSLGIAHTGSYRDIFDRDKMTPLILEVKGVRIAILAYTYGTNGMPVPAPTWVDPIDTVMIKKDLLRADSLGADYRIVQIHWGIEYRKEPDSEQLELARKLHRYGADAIIGSHPHVVQGSQWLKSDSKTSFVIYSMGNFISNQRKPAATRGGMLLSLTLRKVGDRITTHPDYQYVFVNKRTPQGKRVYRLLPVDPFSSDTLPSLPPEEQRDYKEFAKYYQMIPLVLIEREDNRIRNRLQVSQRAFLEHHHHHH	not soluble
MSLTNDIYDKGLAIRKEVVGVDSVERSLRDATEYTAPFQALATEYCWGRVWGRDELDRRTRSIANIAMMIALNRAPELRIHIKGALTNGVPRKEIAEVILQSAVYCGIPAAGDAFRQMQSVFDEADAAAACAPASPAARKSIAVIGLGAMGYPMAAQLVRAGHDVRPYDANPAVLARFAEEFNTGVAPIASCVAGADFVVTVLPDSTVVTRVLDGDNGSGGVAARIKPGATLIDMTSGDPATTRALAARLGEAGVRMIDAPVSGGFVKARTGELAIMVGGEADTVAAAMDILQAMGTSIAHVGPIGAGHTVKALNNYISAIGWLAVIEAIHTGKRFGLDVATMNRIFNQSSGRNSSTANKVEQAVLSGTYHTGFSLALMAKDVGIAVGLARQMGVDAEVGTLAHRIIQTAFDQSAEKDLDNSRLFDILYSEGHHHHHH	not soluble
MSEVLNRQSREITTIVSQPNISRPNYQREKGKERLLGIKATESSNKAGQSFVPQLNPSGTLFTISMKPPAKINTGYTPVDEQKEVKAEVRNSEITEKSFGQAKFIGVSAGNTVGYVIPNLEPGLSQYLQANRSLRAIGVISSRVGAAAQIMAADEAVKKTNSELIRLELARDELGGPGHGVFALFGAEDVADVIRAVEIALKATEEYYQNIKNTPAGKIETHYTARAAAALNKAFGAPLNQAFGIIIGAPAGVGLLMSDTALKTAHVTMVSFWGPSVVQAFANEVWFTVTGDSAAVKNALEAAREVGLQVLAEFRA	not soluble
MITIRNKIGQMLIMGFHGSELHDNSPVAQWLSNDGLGGVLLFDKDLSTGIYGKNLRNQAQIKQLIRQLNRYASMISGGNDNLPLFTAIDYEGGVVDRLSKIEGCPPTMKARELAKLSSDDFDEEVTQMAMTLQSLGFNLNFAPVVDLNLNAHAGIIGNLGRSFSSNPEVTIRLAKQFVDVFSRYGIACAYKHFPGHGSATGDTHEGFVDVTETFQTDELIPYRSLLKDLSNPFMVMTAHVINKHLDSKGLPATLSYDVLTLLLRQSIGYDGVIISDDLQMHAISNHYSLEDALCLTINAGADMVIFANQLGTITPPEVIDVIEKLVIDKQIPYQRIDEAYRRIVRLKQQIICSELINT	not soluble
MGSDKIHHHHHHMNQDLLHKYFKGETSVDEEKRILNWVDESEENRKTLQKERMLFDIALFTDSKRKMREKAGAGARIIPMLRWSARIAAAVIVAVSCGFLINEYQYDKLAQLQTVTVPAGQRAQITLADGTKVWLNSESTLSYRSDFGRRDRDVELDGEAYFEVAKNKEIPFYVNTETNQVRVVGTHFNVCAYKGSNEFETTLVEGIVDIYAYDNERPLTRLTKNEFFGSYQGKYKKAVLPSYDYLRWREGLYCFDDSPFSCILTKLEKYYNVKITVENPKVLNYRCTGKFKEQDGVEHILKVIQKDHPFTYSISEEGDSIRIE	not soluble
MGITLGKKQLNKGRVSLYLNYSYNGKRRKEYLGIILDAPTSAERRAENRNKVLIARQIKAKKELEFLSVEYHLNDIENTFDDILPTDKSNVPDFYILIGQYLDTYHKKDKKMVRACITHLRLFTRKKSLPITLLTKDFCINFLEYLRDHLRGNTPIGYFKKFKMCINKCIEKKLMTSNPTDGIRLMQFDEVTKAILSLKEIQKLAITPCPNNEVKRAFLFSCYCGLRWCDVHQLQYKDIDFSSNRLTILQQKVQSHSKNAILHLNLNHTAIKLLQRHKGINEELVFGLPSYSYTL	not soluble
LKDFSFDLNVNLAKNVSNVEKLADGVDYIYFNGDSNFPINVGARPGHKLGEIYAKTLYKRDEQGNIIINKENGLPMTTTDADERLAKPIGNIQPNLLMSVSPSFTYKGITLSAIFDMKFGGDIISISEMNATGSGMAKRTMNRGESDNFMMIFPGVYEDGTPNTQKISASNYYGAQNAEDFIYDASFIKLKELAIGYTFPKSMLKKTPINSLNVSFVARNLAYLLKHTPGTSPEGGYDTTMFSQAIDFMAVPYTRTFGFSVNLGF	not soluble
MERNYEESALFEHQFWLKVLTDHSQFLLDALAPKEKEDIKKATYFVETFTNLLNKVRNVNLIAFSKEAERAAKEIRTFKLSIIQKQLEGKITIHFTPTFINHMVNEVEEYITVLEFLNKGEVPPVFHELHYHLVWLTDAAGHAGSISGGLDLVEKRLKEKSEEFTKHFEQFYLKAVEMTGYLRTELHHFPALKKFTKDVSLELKLFSHFLHEVEELELSNEILSALSARMADHMAREECYYLLKLAQSSGLEMPKCNPL	not soluble
MESKHKLSINQWALEDRPREKMMEKGAAALSDAELLAILIGSGNTEESAVELMRRLLLSCDNNLNSLAKWEVCDYSRFKGMGPAKSITVMAALELGKRRKLQNIQERPRISCSRDIYDIFQPVMCDLEQEEFWVLLLNQATRLIDKVRISTGGIDGTYTDVRTILREALLQRATQIAVVHNHPSGNIQPSQPDRTLTEHIRRAADTMNIRLIDHVIVCEDKFYSFADEGLL	not soluble
MDAWFEDTAMGRYVAKLEQDFFGRYLDSYRFSGMCAVQVGGPWLSLSEDVVCVPRDMSMSAENMALADVSADMLLFPHTLEGGVPSQILSEAHRILKPCGRLMLTGFNPYSLWGFSRWFDGERLPEKRFCLPLPELKRRLADVGFDIEFGKFMVYLPPVSSLGQIRFWRFMEKAGDRWWPQCAAVYGLVLVKRAAGVTPLPAWDGYLGGKALAAGAARVAD	not soluble
MGHHHHHHSHMVPSSAETGGTNYLAPGGLSDSQLLLEPGDRSHWCVVAYWEEKTRVGRLYCVQEPSLDIFYDLPQGNGFCLGQLNSDNKSQLVQKVRSKIGCGIQLTREVDGVWVYNRSSYPIFIKSATLDNPDSRTLLVHKVFPGFSIKAFDYEKAYSLQRPNDHEFMQQPWTGFTVQISFVKGWGQCYTRQFISSCPCWLEVIFNSR	not soluble
MEEERQQSPLEGLSEEALKHVHQLDEPIPIELQASYFRLSAEMRRRGIQLSENEVQDAEQLLFDPVLSDDIKKMTLLRLAITGNITVFRIIERYLESAPDSMRPWALMAQLEARIGILSDLVDEKQLVITSGLGGHDGMMRFMAFLHTDKLQDFEHYQEELIEKELLYRIGKASGEVERLEMHNNYLLLTFLVPINYDLRNFFSSFIAECNQFGHFLSTTFIITNTQLLTPQGAQVALKKYAEENDLPATN	not soluble
MDFHRALSALFTNQAAVQPLLGSLGFPFNDGTSILTTALAAQSGGKKLDTPLGILPFDSLPTTNLLTPTKKIKLEDELCASPVSSRSSTVSSSHFSSPQRSPSRKMSVPIPEEKKDSAYFERRRKNNDAAKRSRDARRQKEEQIASKAHALERENMQLRGKVSSLEQEAAQLRFLLFSKISPANSEVSCESNDSTETNDSNDSKSDSTIEV	not soluble
